Data on seven molecules can be found in patent US20240067729A1 (PALLEON PHARMACEUTICALS, published 2024).

The target in experiment [1] is T1, human PD-L1 expressed on cells (HCC827, NCI-H292, CHO-PD-L1, engineered CHO-K1) (human, UniProt Q9NZQ7 19-290).
T1 construct: whole, on cells; Endogenous on the human lung lines HCC827 and NCI-H292; transfected on CHO cells; also called PD-L1 on HCC827; PD-L1 on NCI-H292
The experiment in a line: flow cytometry on HCC827 cells, apparent Kd. The method, then:
(§1) FIG. 14 is a graph showing binding of chimeric PD-L1 antibodies to HCC827 (FIG. 14A) and NCI-H292 (FIG. 14B) lung epithelial cell lines. Binding was measured using a FACS analysis with a […] secondary antibody. MFI=mean fluorescence intensity.
(§2) Purified chimeric antibodies were evaluated for their ability to bind PD-L1 expressed on two human cancer cell lines. HCC827 and NCI-292 cells were incubated with titrated antibodies for 30 min at 4° C. Cells were washed and incubated with AF647-labeled goat anti-human IgG(H+L) for 30 min at 4° C. Cells were washed, fixed and analyzed on FACSCelesta.
For orientation: A flow cytometer gives signals particle by particle.

The target in experiment [2] is T2, cynomolgus PD-L1, his tagged (cPD-L1-his) (cynomolgus (Macaca fascicularis), UniProt G7PSE7 19-238).
T2 construct: also called cyPD-L1-His; Cyno PD-L1
In words: BLI (ForteBio Octet), IgG on AHC sensor, cPD-L1-his analyte, 1:1 fit. The procedure:
(§3) Characterization of chimeric anti-PD-L1 antibodies. ForteBio octet binding of purified chimeric antibodies and recombinant hPD-L1-his and cPD-L1-his was measured. Chimeric human antibodies were captured on AHC (Anti-human IgG-Capture) Biosensor, hPD-L1-his or cPD-L1-his analytes were titrated from 100 nM in a 2× series dilution. The buffer reference was subtracted from the signal and aligned to the baseline. KD, Kon and Koff values were generated using 1:1 fitting model as described above.
For orientation: In BLI a coated tip is dipped into the sample, and binding shifts an interference pattern.

The target in experiment [3] is T1, human PD-L1 expressed on cells (HCC827, …). The experiment in a line: cell-based or functional assay.
In experiment [4] the target is T3, human PD-L1 Fc fusion (hPD-L1-Fc) (human, UniProt Q9NZQ7 19-238, limits assumed).
T3 construct: not shown: Fc part
The experiment in a line: blocking ELISA: antibody titrated + biotin-hPD-1-Fc on coated hPD-L1-Fc. The source says: (§4) The plate was developed with TMB and Stop buffer, the absorbance at 450 nm was read using SpectraMax plate reader. The A450 absorbance was normalized to the control that without antibody for the percentage values. The curve and IC₅₀ were generated using GraphPad Prism software.
Protein A purified chimeric antibodies were examined by size exclusion chromatography and quantified with a UV-Vis spectrophotometer (NanoDrop; mAU=milli absorbance units).
On the technique in general: ELISA stands for enzyme-linked immunosorbent assay.

Experiment [5] concerns the target T1, human PD-L1 expressed on cells (HCC827, …). In words: flow cytometry MFI, CHO-PD-L1 cells (10 nM) against parental CHO cells (100 nM). The method, then: CHO cells were incubated with 100 nM antibodies and CHO-PD-L1 cells (from Bioassay) with 10 nM antibodies for 30 min at 4° C. Cells were washed and incubated with goat anti-human IgG(H+L) for 30 in at 4° C. The washed cells were fixed and run on FACSCelesta.

The target is the same in experiment [6]. In words: flow cytometry on NCI-H292 cells, apparent Kd. The procedure:
as §1, §2

Experiment [7] addresses T4, human PD-L1, his tagged (hPD-L1-his) (human, UniProt Q9NZQ7 19-238, limits assumed).
T4 construct: also called huPD-L1-His; recombinant human PD-L1; not shown: his tag
The experiment in a line: BLI (ForteBio Octet), IgG on AHC sensor, hPD-L1-his analyte, 1:1 fit. The method, then:
as §3

Experiment [8] addresses T2, cynomolgus PD-L1, his tagged …. In words: BLI (ForteBio Octet), cPD-L1-his. The method, then:
(§5) Characterization of chimeric anti-PD-L1 antibodies. ForteBio octet binding of purified chimeric antibodies and recombinant hPD-L1-his and cPD-L1-his was measured. Chimeric human antibodies were captured on AHC (Anti-human IgG-Capture) Biosensor, hPD-L1-his or cPD-L1-his analytes were titrated from 100 nM in a 2× series dilution. The buffer reference was subtracted from the signal and aligned to the baseline. KD, Kon and Koff values were generated using 1:1 fitting model as described above. […]

Experiment [9] has as its target T4, human PD-L1, his tagged (hPD-L1-his). The experiment in a line: BLI (ForteBio Octet), hPD-L1-his. The procedure:
as §5

Experiment [10] addresses T2, cynomolgus PD-L1, his tagged …. In words: ELISA on cynomolgus PD-L1.
For experiment [11] the target is unchanged. In words: BLI (ForteBio Octet), mouse IgG on AMC sensor, cPD-L1-his analyte, 1:1 fit. The method, then: (§6) Screening of purified hybridoma antibodies. ForteBio octet binding of purified antibodies to recombinant hPD-L1-his and cPD-L1-his was measured. Mouse IgGs purified from hybridoma supernatant were captured on AMC (Anti-mouse IgG-Capture) Biosensor. hPD-L1-his or cPD-L1-his analytes were titrated from 100 nM in a 2× series dilution. The signal was subtracted with buffer reference and aligned to the baseline. KD, Kon and Koff values were generated using a 1:1 fitting model. […] The X-axes represent assay time in seconds, and the Y-axes represent binding signal on the biosensor. Each line represents the real time signal of antigen association and dissociation at the given antigen concentration in the assay (e.g., the top line represents the signal of the highest antigen concentration in the assay, the second top line represents the second highest concentration in the assay). The vertical dashed line represents the time point that the assay was moved from association step to the dissociation step. All the ForteBio/Octet assays were using standard/conventional settings and the graphs provided in the figures will be understood by one of skill in the art.

The target of experiment [12] is T3, human PD-L1 Fc fusion (hPD-L1-Fc). In words: blocking ELISA: antibody titrated + biotin-hPD-1-Fc 1 ug/mL on coated hPD-L1-Fc.
Source text: as §4

For experiment [13], the target named is T4, human PD-L1, his tagged (hPD-L1-his). In words: BLI (ForteBio Octet), mouse IgG on AMC sensor, hPD-L1-his analyte, 1:1 fit. The method, then:
as §6

T1 sequence (Q9NZQ7 19-290, change not shown): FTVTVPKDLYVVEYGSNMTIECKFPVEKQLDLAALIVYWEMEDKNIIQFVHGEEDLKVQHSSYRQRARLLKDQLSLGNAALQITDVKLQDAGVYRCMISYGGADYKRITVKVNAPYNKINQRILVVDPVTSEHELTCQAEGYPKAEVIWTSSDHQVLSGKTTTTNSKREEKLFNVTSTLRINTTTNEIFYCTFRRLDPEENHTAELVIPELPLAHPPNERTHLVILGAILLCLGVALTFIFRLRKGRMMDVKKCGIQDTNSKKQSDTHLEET
T3 sequence (Q9NZQ7 19-238 limits assumed): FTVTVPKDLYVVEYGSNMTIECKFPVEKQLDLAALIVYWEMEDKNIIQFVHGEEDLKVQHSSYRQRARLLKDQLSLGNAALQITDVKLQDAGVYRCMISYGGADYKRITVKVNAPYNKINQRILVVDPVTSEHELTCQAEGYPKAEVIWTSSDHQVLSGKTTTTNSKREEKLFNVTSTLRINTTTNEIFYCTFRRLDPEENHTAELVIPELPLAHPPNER
T4 sequence (Q9NZQ7 19-238 limits assumed): as above
T2 sequence (G7PSE7 entry or part of it limits assumed, form in doubt): as the sequence (Q9NZQ7 19-238 limits assumed) above, with A33T, A34S, S62N, R68Q, Q82R, F173L, T185A, T192I, H215L counted along it

B1: 785-hIgG1 (chimeric PAL785) (antibody, V domains shown)
VH: EVQLQESGPELVKPGTSVKMSCKASGYTFTSYVMHWVKQRPGQGLEWIGYINPYNDGSKYNEKFKGKATLTSDTSSSTAYMELSSLTSEDSAVYYCAKQTLDFWGQGTSVTVST
VL: DIVLTQSPASLAVSLGQRATISCRASESVEFYGTTLMQWYQQKPGQPPKLLIYAASNVESGVPARFSGSGSGTDFSLNIHPVEEGDIGMYFCQQSRKVPYTFGGGTKLEIK
In general, IC50 refers to the concentration that gives 50% inhibition. Regarding B1, the Kd worked out at 290 pM in [1], 724 pM in experiment [2], 190 pM in [6] and 1640 pM in experiment [7]. For the same molecule, the “IC50, nM (Function)” value in [3] is 0.5 nM. Besides, the IC50 in experiment [4] was 1900 pM. Further, in experiment [5], the “Bind PD-L1-CHO/CHO” value was > 100 x.

B2: 752-hIgG1 (chimeric PAL752) (antibody, V domains shown)
VH: EVQLQESGAELARPGASVKLSCKASGHAFTSDSINWVKQRIGQGLEWIGEIYPRSGNPYYNEKFKGKATLTADKSSSTAYMELRSLTSEDSAVYFCATDYYGRYFDVWGTGTTVTVSS
VL: DIQMTQSSFSFSVSLGDRVTIICKASEDIYNRLAWYQQKPGNTPRLLISGATSLETGVPSRFSGSGSGKDYTLSITSLQTEDVATYYCQQYWSTPWTFGGGTKLEIK
As to B2, the Kd in experiment [1] was found to be 3630 pM; in experiment [2], 3180 pM; in experiment [6], 4980 pM; in [7] it was 1180 pM. For the same molecule, the “IC50, nM (Function)” value in experiment [3] came to 1.5 nM. Also, in experiment [4], the IC50 amounted to 4600 pM.

B3: 769-hIgG1 (chimeric PAL769) (antibody, V domains shown)
VH: EVQLQESGAELVKPGASVTLSCTASGFNIKDTYMHWVKQRPEQGLEWIGRIDPANDNTKYDPKFQDKATITADTSSDTAYLRLSSLTSEDTAVYYCAREGYGGSYGEGYWGQGTTLTVSS
VL: SIVMTQTPKFLLVSAGDRVTITCKASQSVSNDVIWYQQKPGQSPKLLIYYASIRFTGVPDRFAGSGYGTDFTFTINTVQAEDLAVYFCQQDYNSPWTFGGGTKLEIK
One may read the koff as the first-order rate constant of dissociation. A higher koff goes with a short-lived complex. The term kon denotes a measure of how fast the partners come together. A lower kon goes with slower complex formation. For B3, the Kd in experiment [1] stood at 170 pM; in experiment [8] it was 2920 pM; in experiment [2], 550 pM; in experiment [9], 2590 pM; in experiment [6], 120 pM; in experiment [7], 640 pM. For the same molecule, the koff in experiment [8] is 0.000685 s⁻¹; in [9], 0.000967 s⁻¹. In addition, the kon was 238000 M⁻¹ s⁻¹ in experiment [8] and 373000 M⁻¹ s⁻¹ in [9]. Also, in [3], the “IC50, nM (Function)” value worked out at 0.5 nM. The IC50 in [4] was 1600 pM. Further, in [5], the “Bind PD-L1-CHO/CHO” value is > 100 x.

B4: 788-hIgG1 (chimeric PAL788) (antibody, V domains shown)
VH: QVQLQQPGAELVKPGASVKLSCKASGYTFTSNWMNWVKQRPGRGLEWIGRIHPSDSETHYHQKFKSKATLTVDKSSSTAYIQLSSLTSEDSAVYYCAHSSGDYGRDYWGQGTTLTVSS
VL: NIVLTQSPASLAVSLGQRATISCRASESVDSYGNSFMHWYQQKPGQPPKLLIYLASNLQSGVPARFSGSGSRTDFTLTIDPVEADDAATYYCQQNNEDPWTFGGGTKLEIK
For B4, the Kd was 1570 pM in experiment [1], 867 pM in experiment [2], 1680 pM in experiment [6] and 43 pM in experiment [7]. Also, in experiment [3], the “IC50, nM (Function)” value was determined as 0.9 nM. The IC50 in experiment [4] was 2900 pM. Also, the “Bind PD-L1-CHO/CHO” value in experiment [5] was > 100 x.

B5: PAL788(3E3) (hybridoma CKH-3E3) (antibody, V domains shown)
VH: QVQLQQPGAELVKPGASVKLSCKASGYTFTSNWMNWVKQRPGRGLEWIGRIHPSDSETHYHQKFKSKATLTVDKSSSTAYIQLSSLTSEDSAVYYCAHSSGDYGRDYWGQGTTLTVSS
VL: NIVLTQSPASLAVSLGQRATISCRASESVDSYGNSFMHWYQQKPGQPPKLLIYLASNLQSGVPARFSGSGSRTDFTLTIDPVEADDAATYYCQQNNEDPWTFGGGTKLEIK
notes: Mouse IgG purified from hybridoma supernatant
For the molecule B5, the “ELISA cyno, Fold over Bkg” value in [10] turned out to be 24.8 fold over background. In addition, the results for the Kd in experiment [11] and in experiment [13] were 392 pM and 188 pM, respectively. The IC50 in experiment [12] was found to be 890 pM.

B6: 767-hIgG1 (chimeric PAL767) (antibody, V domains shown)
VH: EVQLQESGPSLVKPSQTLSLTCSVTGDSITSGYWNWIRKFPGNKLEYMGYISYTGSTYYNPSLKRRISITRDTSKNQYYLQLNSVTTEDTATYYCASQGGWLQAMDYWGQGTSVTVSS
VL: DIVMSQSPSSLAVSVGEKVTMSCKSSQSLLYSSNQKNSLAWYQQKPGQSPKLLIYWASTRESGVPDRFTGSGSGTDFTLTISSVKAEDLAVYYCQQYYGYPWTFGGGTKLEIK
Consider B6, for which the Kd in experiment [1] stood at 260 pM; in experiment [2], 266 pM; in experiment [6], 230 pM; in experiment [7], 52.2 pM. Moreover, the “IC50, nM (Function)” value in [3] amounted to 0.6 nM. The IC50 in [4] worked out at 2000 pM. Besides, the “Bind PD-L1-CHO/CHO” value in [5] is > 100 x.

B7: 771-hIgG1 (chimeric PAL771) (antibody, V domains shown)
VH: EVQLQESGAELVKPGASVKLSCTASGFNIKDTYMHWVKQRPEQGLEWIGRIDPANGNTKYDPKFPGKATITADTSSNTAYLQLSSLTSEDAAVYYCARPFNYRFYDVYYFDYWGQGTTLTVST
VL: QIVLTQSPAIMSASPGEKVTMTCSASSSVSYMYWYQQKPGSSPRLLIYDTSNLASGVPLRFSGSGSGTSYSLTLSRMEAEDAATYYCQQWSTYPLTFGAGTKLELK
As to B7, the Kd in experiment [1] was found to be 1020 pM; in experiment [2] it was 1120 pM; in experiment [6], 1170 pM; in experiment [7] it was 1430 pM. Moreover, the “IC50, nM (Function)” value in [3] is 1 nM.
